In the supplement of paper PMC11246515:
± gives the standard deviation of the averaged measurements.

Assay: total protein half-life in vivo (active degradation + dilution); higher = more stable protein
[1] = E. coli NCM3722 delta-clpP delta-lon delta-hslV, growth: N-lim chemostat, doubling time 6 h
[2] = E. coli NCM3722 delta-clpP, growth: N-lim chemostat, doubling time 6 h
[3] = E. coli NCM3722 delta-hslV, growth: N-lim chemostat, doubling time 6 h
[4] = E. coli NCM3722 delta-lon, growth: N-lim chemostat, doubling time 6 h
[5] = E. coli NCM3722 delta-smpB, growth: N-lim chemostat, doubling time 6 h
[6] = wild type E. coli NCM3722, growth: C-lim chemostat, doubling time 3 h
[7] = wild type E. coli NCM3722, growth: C-lim chemostat, doubling time 6 h
[8] = wild type E. coli NCM3722, growth: C-lim chemostat, doubling time 12 h
[9] = wild type E. coli NCM3722, growth: N-lim chemostat, doubling time 6 h
[10] = wild type E. coli NCM3722, growth: N-lim chemostat, doubling time 12 h
[11] = wild type E. coli NCM3722, growth: P-lim chemostat, doubling time 6 h
[12] = wild type E. coli NCM3722, growth: P-lim chemostat, doubling time 12 h

Row | Sequence | total protein half-life in vivo [1] [h] | total protein half-life in vivo [2] [h] | total protein half-life in vivo [3] [h] | total protein half-life in vivo [4] [h] | total protein half-life in vivo [5] [h] | total protein half-life in vivo [6] [h] | total protein half-life in vivo [7] [h] | total protein half-life in vivo [8] [h] | total protein half-life in vivo [9] [h] | total protein half-life in vivo [10] [h] | total protein half-life in vivo [11] [h] | total protein half-life in vivo [12] [h]
1 | MFYPDPFDVIIIGGGHAGTEAAMAAARMGQQTLLLTHNIDTLGQMSCNPAIGGIGKGHLVKEVDALGGLMAKAIDQAGIQFRILNASKGPAVRATRAQADRVLYRQAVRTALENQPNLMIFQQAVEDLIVENDRVVGAVTQMGLKFRAKAVVLTVGTFLDGKIHIGLDNYSGGRAGDPPSIPLSRRLRELPLRVGRLKTGTPPRIDARTIDFSVLAQQHGDNPMPVFSFMGNASQHPQQVPCYITHTNEKTHDVIRSNLDRSPMYAGVIEGVGPRYCPSIEDKVMRFADRNQHQIFLEPEGLTSNEIYPNGISTSLPFDVQMQIVRSMQGMENAKIVRPGYAIEYDFFDPRDLKPTLESKFIQGLFFAGQINGTTGYEEAAAQGLLAGLNAARLSADKEGWAPARSQAYLGVLVDDLCTLGTKEPYRMFTSRAEYRLMLREDNADLRLTEIGRELGLVDDERWARFNEKLENIERERQRLKSTWVTPSAEAAAEVNAHLTAPLSREASGEDLLRRPEMTYEKLTTLTPFAPALTDEQAAEQVEIQVKYEGYIARQQDEIEKQLRNENTLLPATLDYRQVSGLSNEVIAKLNDHKPASIGQASRISGVTPAAISILLVWLKKQGMLRRSA [P0A6U3] | 5.157 ± 0.0054 | 4.25 ± 0.18 | 1.64 ± 0.088 | 1.831 ± 0.014 | 1.73 ± 0.065 | 1.42 ± 0.081 | 2.35 ± 0.068 | 3.19 ± 1.2 | 1.71 ± 0.14 | 2.48 ± 0.15 | 1.9 ± 0.13 | 3.12 ± 0.84
2 | MTEQQKLTFTALQQRLDSLMLRDRLRFSRRLHGVKKVKNPDAQQAIFQEMAKEIDQAAGKVLLREAARPEITYPDNLPVSQKKQDILEAIRDHQVVIVAGETGSGKTTQLPKICMELGRGIKGLIGHTQPRRLAARTVANRIAEELKTEPGGCIGYKVRFSDHVSDNTMVKLMTDGILLAEIQQDRLLMQYDTIIIDEAHERSLNIDFLLGYLKELLPRRPDLKIIITSATIDPERFSRHFNNAPIIEVSGRTYPVEVRYRPIVEEADDTERDQLQAIFDAVDELSQESHGDILIFMSGEREIRDTADALNKLNLRHTEILPLYARLSNSEQNRVFQSHSGRRIVLATNVAETSLTVPGIKYVIDPGTARISRYSYRTKVQRLPIEPISQASANQRKGRCGRVSEGICIRLYSEDDFLSRPEFTDPEILRTNLASVILQMTALGLGDIAAFPFVEAPDKRNIQDGVRLLEELGAITTDEQASAYKLTPLGRQLSQLPVDPRLARMVLEAQKHGCVREAMIITSALSIQDPRERPMDKQQASDEKHRRFHDKESDFLAFVNLWNYLGEQQKALSSNAFRRLCRTDYLNYLRVREWQDIYTQLRQVVKELGIPVNSEPAEYREIHIALLTGLLSHIGMKDADKQEYTGARNARFSIFPGSGLFKKPPKWVMVAELVETSRLWGRIAARIDPEWVEPVAQHLIKRTYSEPHWERAQGAVMATEKVTVYGLPIVAARKVNYSQIDPALCRELFIRHALVEGDWQTRHAFFRENLKLRAEVEELEHKSRRRDILVDDETLFEFYDQRISHDVISARHFDSWWKKVSRETPDLLNFEKSMLIKEGAEKISKLDYPNFWHQGNLKLRLSYQFEPGADADGVTVHIPLPLLNQVEESGFEWQIPGLRRELVIALIKSLPKPVRRNFVPAPNYAEAFLGRVKPLELPLLDSLERELRRMTGVTVDREDWHWDQVPDHLKITFRVVDDKNKKLKEGRSLQDLKDALKGKVQETLSAVADDGIEQSGLHIWSFGQLPESYEQKRGNYKVKAWPALVDERDSVAIKLFDNPLEQKQAMWNGLRRLLLLNIPSPIKYLHEKLPNKAKLGLYFNPYGKVLELIDDCISCGVDKLIDANGGPVWTEEGFAALHEKVRAELNDTVVDIAKQVEQILTAVFNINKRLKGRVDMTMALGLSDIKAQMGGLVYRGFVTGNGFKRLGDTLRYLQAIEKRLEKLAVDPHRDRAQMLKVENVQQAWQQWINKLPPARREDEDVKEIRWMIEELRVSYFAQQLGTPYPISDKRILQAMEQISG | 6.34 ± 0.51 | 6.5 ± 1.2 | 5.99 ± 0.13 | 5.89 ± 0.89 | 5.46 ± 0.8 | 3.53 ± 0.13 | 6.34 ± 0.23 | 12.8 ± 1.3 | 5.66 ± 0.1 | 11.2 ± 0.78 | 5.71 ± 0.12 | 11.3 ± 0.18
3 | MQKFDTRTFQGLILTLQDYWARQGCTIVQPLDMEVGAGTSHPMTCLRELGPEPMAAAYVQPSRRPTDGRYGENPNRLQHYYQFQVVIKPSPDNIQELYLGSLKELGMDPTIHDIRFVEDNWENPTLGAWGLGWEVWLNGMEVTQFTYFQQVGGLECKPVTGEITYGLERLAMYIQGVDSVYDLVWSDGPLGKTTYGDVFHQNEVEQSTYNFEYADVDFLFTCFEQYEKEAQQLLALENPLPLPAYERILKAAHSFNLLDARKAISVTERQRYILRIRTLTKAVAEAYYASREALGFPMCNKDK | 6.13 ± 0.15 | 6.28 ± 1.2 | 6.72 ± 0.52 | 6.54 ± 0.34 | 4.88 ± 0.31 | 3.4 ± 0.69 | 6.44 ± 0.24 |  | 6.04 ± 0.12 |  | 6.78 ± 1.4 | 13.3 ± 0.41
4 | MSEIVIRHAETRDYEAIRQIHAQPEVYCNTLQVPHPSDHMWQERLADRPGIKQLVACIDGDVVGHLTIDVQQRPRRSHVADFGICVDSRWKNRGVASALMREMIEMCDNWLRVDRIELTVFVDNAPAIKVYKKYGFEIEGTGKKYALRNGEYVDAYYMARVK | 4.84 ± 0.053 | 3.7 ± 0.65 | 4.09 ± 0.13 | 4.56 ± 0.45 | 3.82 ± 0.33 | 3.03 ± 0.086 | 4.83 ± 0.18 | 10.4 ± 0.85 | 3.91 | 6.73 ± 0.38 | 5.26 ± 0.41 | 11.3 ± 0.22
5 | MNIRDLEYLVALAEHRHFRRAADSCHVSQPTLSGQIRKLEDELGVMLLERTSRKVLFTQAGMLLVDQARTVLREVKVLKEMASQQGETMSGPLHIGLIPTVGPYLLPHIIPMLHQTFPKLEMYLHEAQTHQLLAQLDSGKLDCVILALVKESEAFIEVPLFDEPMLLAIYEDHPWANRECVPMADLAGEKLLMLEDGHCLRDQAMGFCFEAGADEDTHFRATSLETLRNMVAAGSGITLLPALAVPPERKRDGVVYLPCIKPEPRRTIGLVYRPGSPLRSRYEQLAEAIRARMDGHFDKVLKQAV [P0ACQ4] | 6.42 ± 0.14 | 6.57 ± 1.4 | 4.79 ± 0.37 | 4.56 ± 0.12 | 4.11 ± 0.24 | 2.62 ± 0.37 | 5.1 ± 0.76 | 9.67 ± 2.1 | 4.51 ± 0.26 | 10.4 ± 2.9 | 4.768 ± 0.012 | 9.98 ± 0.13
6 | MNLKLQLKILSFLQFCLWGSWLTTLGSYMFVTLKFDGASIGAVYSSLGIAAVFMPALLGIVADKWLSAKWVYAICHTIGAITLFMAAQVTTPEAMFLVILINSFAYMPTLGLINTISYYRLQNAGMDIVTDFPPIRIWGTIGFIMAMWVVSLSGFELSHMQLYIGAALSAILVLFTLTLPHIPVAKQQANQSWTTLLGLDAFALFKNKRMAIFFIFSMLLGAELQITNMFGNTFLHSFDKDPMFASSFIVQHASIIMSISQISETLFILTIPFFLSRYGIKNVMMISIVAWILRFALFAYGDPTPFGTVLLVLSMIVYGCAFDFFNISGSVFVEKEVSPAIRASAQGMFLMMTNGFGCILGGIVSGKVVEMYTQNGITDWQTVWLIFAGYSVVLAFAFMAMFKYKHVRVPTGTQTVSH [P0AFF4] |  |  | > 8 |  |  | 1.79 | 6.63 | 10.8 ± 2.5 |  | 4.5 |  | 
7 | MEKVMLSFDKVSAHYGKIQALHEVSLHINQGEIVTLIGANGAGKTTLLGTLCGDPRATSGRIVFDDKDITDWQTAKIMREAVAIVPEGRRVFSRMTVEENLAMGGFFAERDQFQERIKWVYELFPRLHERRIQRAGTMSGGEQQMLAIGRALMSNPRLLLLDEPSLGLAPIIIQQIFDTIEQLREQGMTIFLVEQNANQALKLADRGYVLENGHVVLSDTGDALLANEAVRSAYLGG | 5.87 ± 0.53 | 6.13 ± 0.64 | 5.66 ± 0.54 | 6.44 ± 0.9 | 5.58 ± 0.61 | 3.07 ± 0.055 | 5.86 ± 0.22 | 12.4 ± 0.52 | 5.51 ± 0.47 | 10.1 ± 1.1 | 5.94 ± 0.59 | 13.5 ± 0.69
8 | MLEDLKRQVLEANLALPKHNLVTLTWGNVSAVDRERGVFVIKPSGVDYSVMTADDMVVVSIETGEVVEGTKKPSSDTPTHRLLYQAFPSIGGIVHTHSRHATIWAQAGQSIPATGTTHADYFYGTIPCTRKMTDAEINGEYEWETGNVIVETFEKQGIDAAQMPGVLVHSHGPFAWGKNAEDAVHNAIVLEEVAYMGIFCRQLAPQLPDMQQTLLDKHYLRKHGAKAYYGQ |  |  |  |  |  |  | 2.27 | 9.82 |  |  |  | 
9 | MDNDKIDQHSDEIEVESEEKERGKKIEIDEDRLPSRAMAIHEHIRQDGEKELERDAMALLWSAIAAGLSMGASLLAKGIFQVELEGVPGSFLLENLGYTFGFIIVIMARQQLFTENTVTAVLPVMQKPTMSNVGLLIRLWGVVLLGNILGTGIAAWAFEYMPIFNEETRDAFVKIGMDVMKNTPSEMFANAIISGWLIATMVWMFPAAGAAKIVVIILMTWLIALGDTTHIVVGSVEILYLVFNGTLHWSDFIWPFALPTLAGNICGGTFIFALMSHAQIRNDMSNKRKAEARQKAERAENIKKNYKNPA | 6.19 ± 0.79 | 5.38 ± 0.26 | 5.3 | 5.46 | 6.11 ± 1.4 | 3.47 | 5.51 ± 0.23 | 11.5 ± 1.9 | 5.75 ± 1.1 | 13.5 ± 1.3 | 6.29 ± 0.45 | 12.6 ± 0.066
